Target: T1, Cdk6 (Abcam's ab84717, recombinant full length Human Cdk6 (amino acids 1-326) with N-terminal His tag) (human, UniProt Q00534 1-326)
T1 construct: range 1-326; Bought reagent (Abcam ab84717), coated on the ELISA plate at 1 ug/ml; also called CDk6 protein; not shown: N-terminal His tag of the bought protein
Assay: ELISA: Cdk6 coated on plate, p16 at 0-10 uM, detected with anti-p16 antibody and HRP secondary, A450

T1 sequence (Q00534 whole entry, the tested form may be a part): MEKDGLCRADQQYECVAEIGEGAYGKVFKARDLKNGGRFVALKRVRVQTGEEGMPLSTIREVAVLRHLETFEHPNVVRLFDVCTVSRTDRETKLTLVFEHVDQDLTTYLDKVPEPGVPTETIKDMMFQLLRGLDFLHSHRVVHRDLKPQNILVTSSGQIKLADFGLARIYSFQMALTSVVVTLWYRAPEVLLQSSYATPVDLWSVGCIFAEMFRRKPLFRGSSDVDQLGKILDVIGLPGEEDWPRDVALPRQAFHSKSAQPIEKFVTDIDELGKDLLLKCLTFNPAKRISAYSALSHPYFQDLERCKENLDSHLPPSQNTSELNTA

B1: human p16 protein variant (SEQ ID NO: 2; W15K, L37D, L65K, C72S, L78S, V106A, L113T) (other)
chain: MEPAAGSSMEPSADKLATAAARGRVEEVRALLEAGADPNAPNSYGRRPIQVMMMGSARVAELLLKHGAEPNSADPATSTRPVHDAAREGFLDTLVVLHRAGARLDARDAWGRTPVDLAEELGHRDVARYLRAAAGGTRGSNHARIDAAEGPSDIPD
notes: also called p16INK4a variant; mt p16
B1: binds.
